Experimental data reported in doi:10.1101/2022.02.25.482027 (bioRxiv, 2022).
Numbering of substitutions follows the chain as printed.

How the values were obtained:
Experiment in all cases: co-sedimentation
FtsA(A188V) = target: T1, FtsA(A188V) (E. coli, UniProt P0ABH0 1-420, A188V)
T1 sequence: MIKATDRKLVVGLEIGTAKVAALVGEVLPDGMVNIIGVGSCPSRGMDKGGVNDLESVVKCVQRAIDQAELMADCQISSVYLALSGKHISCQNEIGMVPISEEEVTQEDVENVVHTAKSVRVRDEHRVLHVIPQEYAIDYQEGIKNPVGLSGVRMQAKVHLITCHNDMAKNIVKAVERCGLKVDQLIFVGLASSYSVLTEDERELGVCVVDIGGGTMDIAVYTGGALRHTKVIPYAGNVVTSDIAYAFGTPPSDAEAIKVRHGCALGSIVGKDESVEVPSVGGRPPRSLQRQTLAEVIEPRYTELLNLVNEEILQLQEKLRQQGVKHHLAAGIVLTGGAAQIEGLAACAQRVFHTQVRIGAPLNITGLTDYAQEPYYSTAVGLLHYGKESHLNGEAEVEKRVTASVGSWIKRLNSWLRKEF

FtsA(Y375A) = target: T2, FtsA(Y375A) (E. coli, UniProt P0ABH0 1-420, Y375A)
T2 sequence: T1 sequence with V188A, Y375A

FtsA(E14R) = target: T3, FtsA(E14R) (E. coli, UniProt P0ABH0 1-420, E14R)
T3 sequence: T1 sequence with E14R, V188A

FtsA(S84L) = target: T4, FtsA(S84L) (E. coli, UniProt P0ABH0 1-420, S84L)
T4 sequence: T1 sequence with S84L, V188A

Measured: binding result

B1: FtsZ (natural protein)
chain: MFEPMELTNDAVIKVIGVGGGGGNAVEHMVRERIEGVEFFAVNTDAQALRKTAVGQTIQIGSGITKGLGAGANPEVGRNAADEDRDALRAALEGADMVFIAAGMGGGTGTGAAPVVAEVAKDLGILTVAVVTKPFNFEGKKRMAFAEQGITELSKHVDSLITIPNDKLLKVLGRGISLLDAFGAANDVLKGAVQGIAELITRPGLMNVDFADVRTVMSEMGYAMMGSGVASGEDRAEEAAEMAISSPLLEDIDLSGARGVLVNITAGFDLRLDEFETVGNTIRAFASDNATVVIGTSLDPDMNDELRVTVVATGIGMDKRPEITLVTNKQVQQPVMDRYQQHGMAPLTQEQKPVAKVVNDNAPQTAKEPDYLDIPAFLRKQAD
binds: all assays above
